Assay [1] addresses hLDLR-K809R\C818A (human) (UniProt P01130). As to the kind of experiment: cell-based or functional assay.
The target in assay [2] is wild type human low density lipoprotein receptor (hLDLR), isoform 1 (human) (UniProt P01130). The assay is described as follows: cell-based or functional assay.

For one substance, percent LDL positive HEK293 cells, hLDLR-K809R\C818A co-transfected with hIDOL and percent LDL positive HEK293 cells, hLDLR co-transfected with hIDOL results are on record in patent publication US20170101458A1.

As to “human inducible degrader of LDLR (hIDOL) (from UniProt Q8WY64 1-445)”, the percent LDL positive HEK293 cells, hLDLR-K809R\C818A co-transfected with hIDOL in assay [1] was 14 % of cells. Moreover, the percent LDL positive HEK293 cells, hLDLR co-transfected with hIDOL in assay [2] was 2 % of cells.
